Values joined by “and” are separate entries in the source; they are usually repeats but may differ in a detail not shown here. Equal values may be shown once.

Among the targets are RBD of SARS-CoV-2 EG.5.1 (SARS-CoV-2 Omicron EG.5.1, strain, biotin (Avi tag)); RBD of SARS-CoV-2 HV.1 (SARS-CoV-2 Omicron HV.1, strain, biotin (Avi tag)); RBD of SARS-CoV-2 BA.1 (SARS-CoV-2 Omicron BA.1, strain, biotin (Avi tag)).
What all share (test): BLI
On the technique in general: Biolayer interferometry detects binding as a change in optical thickness at a sensor tip.

B1: Fab-52 (Fab, V domains shown)
VH: EVQLVQSGGDLAPPGGSLRLSCEASGIIVSSNYMTWVRQAPGKGLEWVSLIFAGGSTFYADSVKGRFTVSRDNSKNTLYLQMSSLKPEDTAVYFCARDLREMGGLDFWGQGALVTVSS
VL: DIQMTQSPSSVSASIGDTVTITCRASQGIPSWVAWYQQKPGKAPKLLIYGASNLQRGVPSRFSGSGSGTDFTLTISSLQPEDLAVYYCHQSDSLPGIFGGGTKVEIK
As for B1, the Kd – broadly, the equilibrium constant for the complex coming apart – in the experiment with RBD of SARS-CoV-2 EG.5.1 is 10 nM and 7 nM; with RBD of SARS-CoV-2 HV.1 it was 12.2 nM and 9.1 nM; with RBD of SARS-CoV-2 BA.1 it was 1.1 nM.

The values above are taken from PMC11661108 (bioRxiv, 2024).
